Assay results: US5639597A, “Cell-free receptor binding assays, the production and use thereof” (Behringwerke Aktiengesellschaft, priority 1990, dated 1997)

Experiments:
[1] = biological target: T1, GM-CSFRFc (extracellular domain of the human GM-CSF receptor fused to Fc of human IgG1) (Homo sapiens, UniProt P15509); assay: Cell-free GM-CSF binding assay, competition of ligands with GM-CSF-biotin; conditions: 1000 ng/ml GM-CSFRFc for coating, 150 ng/ml GM-CSF-biotin, concentrations used; FIG. 14
T1 construct: made in house; host or cells: COS cells (transient; supernatants used)
Experimental: (§1) ELISA plates (Nunc, type B) were coated overnight at 4° C. with 100 μl of an affinity-purified rabbit serum against the CH2 domain of human IgG (Dakopatts). The concentration was 10 μg/ml in PBS (137 mM NaCl, 2.7 mM KCl, 6.1 mM Na2 HPO4, 3.9 mM KH2 PO4, 0.5 mM MgCl2, 0.1 mM CaCl2, pH 7.0). The assay plate was washed five times with PBS containing 0.05% Tween 20 and then incubated with 275 μl of PBS containing 5% skim milk powder at room temperature for 60 min and then washed as above. Then a "checkerboard titration" was initially carried out in order to determine a suitable combination of receptor and ligand concentrations for the design of the assay. […] After washing as above, incubation with 100 μl of streptavidin-peroxidase (Amersham; 1:250 in DMEM/FCS) was carried out at room temperature for 30 min and then washed as above. The bound peroxidase was detected by the color produced in 100 μl of tetramethylbenzidine substrate solution (Behringwerke). After incubation at room temperature for 30 min, the extinction at 450 nm was measured.
Transient expression of pGM-CSFRFc in COS cells was carried out. To do this, COS cells were transfected with pGM-CSFRFc with the aid of DEAE-dextran (EP-A 0325 262).

[2] = biological target: T2, TNFRFc (extra-cellular portion of the 80 kD form of the human TNF receptor fused to Fc of human IgG1) (Homo sapiens, UniProt P20333); assay: Cell-free TNF binding assay, competition of ligands with TNF-alpha-biotin; conditions: 200 ng/ml TNFRFc for coating, 20 ng/ml TNF-alpha-biotin, FIG. 8; for effect on binding of TNF-alpha-biotin to TNFRFc: concentrations used
T2 construct: made in house
Experimental: as §1, with “The” for “ELISA plates (Nunc, type B) were coated overnight at 4° C. with 100 μl of an affinity-purified rabbit serum against the CH2 domain of human IgG (Dakopatts). The concentration was 10 μg/ml in PBS (137 mM NaCl, 2.7 mM KCl, 6.1 mM Na2 HPO4, 3.9 mM KH2 PO4, 0.5 mM MgCl2, 0.1 mM CaCl2, pH 7.0). The”

TNFRFc (human) = assay: competition with TNF-alpha-biotin (20 ng/ml) for plate-bound TNFRFc (200 ng/ml for coating), ELISA format
TNF-alpha-biotin = assay: soluble TNFRFc competing with plate-bound TNFRFc for TNF-alpha-biotin, ELISA format
[3] = biological target: T3, IL-4RFc (extracellular portion of the human receptor for IL-4 fused to Fc of human IgG1) (Homo sapiens, UniProt P24394); assay: Cell-free IL-4 binding assay, competition of ligands with IL-4-biotin; conditions: 300 ng/ml IL-4-biotin, various concentrations of competitor; FIG. 3
T3 construct: It is composed of the extracellular portion of the human receptor for IL-4
Experimental: as §1

IL-4-biotin = biological target: T4, IL-4-biotin (Homo sapiens, UniProt P05112); assay: Detection of soluble IL-4 receptor in the cell-free binding assay (competition for IL-4-biotin); conditions: plate coated with 300 ng/ml IL-4RFc; FIG. 4
T4 sequence (P05112 25-153): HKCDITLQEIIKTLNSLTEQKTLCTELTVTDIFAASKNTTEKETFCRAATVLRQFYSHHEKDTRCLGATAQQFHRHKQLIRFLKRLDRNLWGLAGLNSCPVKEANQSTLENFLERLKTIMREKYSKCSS
Experimental: as §1

IL-4: interleukin 4, unlabelled ligand used for competition
inhibition of binding of GM-CSF-biotin to GM-CSFRFc [1]: do not inhibit | effect on binding of TNF-alpha-biotin to TNFRFc [2]: no effect

GM-CSF: granulocyte/macrophage colony-stimulating factor, unlabelled ligand
effect on binding of TNF-alpha-biotin to TNFRFc [2]: no effect

TNF-alpha
inhibition of binding of GM-CSF-biotin to GM-CSFRFc [1]: do not inhibit | inhibition of binding of TNF-alpha-biotin, IC50 [2]: 5 ng/mL

TNF-alpha (ligand)
IC50 (TNFRFc (human)): 5 ng/mL

TNFRFc (Fc fusion)
IC50 (TNF-alpha-biotin): 35 ng/mL

IL-1-alpha: interleukin ligand used for competition (specificity control)
inhibition of binding of GM-CSF-biotin to GM-CSFRFc [1]: do not inhibit | competition with IL-4-biotin for binding to IL-4RFc [3]: no binding activity | effect on binding of TNF-alpha-biotin to TNFRFc [2]: no effect

B1: IL-7RFc: an Fc fusion of the human IL-7 receptor (protein)
chain: ESGYAQNGDLEDAELDDYSFSCYSQLEVNGSQHSLTCAFEDPDVNITNLEFEICGALVEVKCLNFRKLQEIYFIETKKFLLIGKSNICVKVGEKSLTCKKIDLTTIVKPEAPFDLSVVYREGANDFVVTFNTSHLQKKYVKVLMHDVAYRQEKDENKWTHVNLSSTKLTLLQRKLQPAAMYEIKVRSIPDHYFKGFWSEWSPSYYFRTPEINNSSGEMD
binding activity of soluble receptor/Fc fusion protein in IL-4-biotin competition assay (IL-4-biotin): no binding activity

B2: G-CSF: ligand used for competition (specificity control) (protein, UniProt P09919 31-207, looked up)
Granulocyte …: TPLGPASSLPQSFLLKCLEQVRKIQGDGAALQEKLVSECATYKLCHPEELVLLGHSLGIPWAPLSSCPSQALQLAGCLSQLHSGLFLYQGLLQALEGISPELGPTLDTLQLDVADFATTIWQQMEELGMAPALQPTQGAMPAFASAFQRRAGGVLVASHLQSFLEVSYRVLRHLAQP
inhibition of binding of GM-CSF-biotin to GM-CSFRFc [1]: do not inhibit
